Drawing on patent US20180011085A1, this text covers limit of detection for 1 substance.

The assay has as its target purified recombinant M1 protein from influenza virus labeled with His-tag (influenza virus). The assay is described as follows: Western blot of 0.1-10 ng M1-HisTag, HRP-conjugated antibody 1:2000, chemiluminescence.

With “antibody against His-tag conjugated with horseradish peroxidase (Sigma, #A7058-1VL)”, the limit of detection came to 500 pg.
